# Laboratory results from patent publication US20160040149A1, “Compositions Having Dicamba Decarboxylase Activity and Methods of Use” (priority 2013, published 2016).
# Residue numbers refer to the chain shown, from its start.
# B1: 48 (protein, listed as Amycolatopsis mediterranei)
# chain: MASMKLYGLEEHFVTADVIEAWRRRDPGLAEPMMKWAVASDITPALLDVDGGRIAAMDDAGIDTTVLSLTTPGLQNLDAAEAVALQAPTNDLIAAAVRRHPGRFQGFATLATSAPAAAADELRRAVTELGLNGALVNANSRGRALDAPGFWDIYEAAEDLRAPVYLHPGVPVPAVTEAYYRGFGEPVNSMLATGAFGWHYDAGLTILRMIVAGVFDRFPGLQVILGHWGEVVLFYLDRVAAMDKLTALRRPIAEYFRSNIFITPGGISSHKYLRWSLETVGVERIMYASDYPFNTERAGSARRFLDTAPVDEAGRERIAYRNWEELIAGIRR
# B2: 45 (protein)
# chain: MANDDLAEVIAAHPDRFAGFAALPMRDPQAAAVELQRAVGTHGFCGAMINGLIEGRFLDDPAFAPLLSTAADLGVPLYLHPSFPPPQVAEIYFGGLAPVLGDLLATAGWGWHAETALHVLRLVATGVFDRLPELWVIVGHMGEMIPFALARIDTVLSPVAQLRQPVAQYFQTNVWFTTSGYTTFPPLQCALSTVGIDRLIFSVDYPYTDNTSARALLDTAPISPVDREKLAHGTVEALLRV
# modifications: Mycobacterium sp
# B3: 49 (protein, listed as Streptomyces sp.)
# chain: MAKIIALEEHFSDPAVAKAGAARARALSPGFAASYSPASGLPYSPSPEVLENLAEKRLADMDAGGITMQVLSGLGAQTVPADVAPALVAGSNDKAAAAVRAHPDRFAAFAALPTATPEAAVAELDRSVNELGFVGTLIMGRTEGEFLDAPRFEPILARAAALKVPVFLHPGVPPREITDSNYAAGLPTGIGTRLQTAAWGWHQETAVHFLHLVHSGVLDRYPDLQFILGHWGEMIPFYLDRVDEALPQRATGLDRSFHEYFRENVYLAPSGMWSQAQLRFCLETVPLERIVFAVDYPFIGNEGAVPFLEKAELPQADKRKIAHENAERLLGL
# B4: 52 (protein, listed as Streptomyces sp.)
# chain: B3 chain with R25Q, G75S, T116A, M234T, V285F, Q315E
# B5: 54 (protein, listed as Streptomyces sp.)
# chain: B3 chain with R25Q, T116A, V128I, D223G, Q315E
# B6: 51 (protein, listed as Mycobacterium gilvum)
# chain: MARVIAIEEHYAHPGLQPAEALANLRKHPQLARIQDKLEDLGAGRLADMDAAGIDMQVLSHTVPGAEALPAAQAVDVVRQTNDDLAEVIAAHPDRFAGFAALPMRDPQAAATELQRAVGTLGFCGAMINGLIEGRFLDHPDFTPLLSTAADLGVPLYLHPSFPPPQVAQIYFGGLPPVLADLLATAGWGWHAETALHVLRLISTGVFDRLPELRVIVGHMGEMIPFALARIDTVLSPMTELRQPVAQYFQTNVWFTTSGYTTFPPLQCALSTVGIDRLIFSVDYPYTDNASARALLDTAPISPVDREKLAHATVEALLRV
# B7: 55 (protein, listed as Serratia sp.)
# chain: MAKIICLEEHTLDKALVMASMPAALEQAPFLSDWGKTVTDGNLPDRSRPQIEKNDLINIKGADIGRGRLDDMDVAGITMQVLSVGGFPHLISAAEGVDLNRAANDRLADAVNAHPDRFAAFATLPWAQPDSAEKELERAVKELGFKGALLNGRPSTHFLDHPDYDGLLARFNALGVPLYLHPGLPVRSVQQAYYGGFSDEVTARLSMFGWGWHHEAGIHLLRLILSGAFDKYPNLQVISGHWGEMLPFWLQRLDDSLPQAATGLRRTIAQTFKEQVYVTPSGMLTLPHFQFIYALLGAERIIFSVDYPYQTLDGVKAFIQSLPVPEEAKEAIAFRNAERLLGLTS
# B8: 46 (protein, listed as Rhodococcus opacus)
# chain: MARIITLEEHYLDPAIAAASAPLARELSPDFAAAYDPASGLSYTPSAQVLQDLGQRRIADMDTHGISMQVLSCLTTQQVPADVAPDLVRAANDTAAAAVRAHPDRFAAFAALPTTAPDAAATELARCIDDLGFVGTMINGRTDGEFLDAPRFDPILATAAARNVPIYLHPAVPPRATSDSNYAGLAPLVTARLQTSAWGWHQETAVHFLHLVLSGVLDRYPNLQFILGHWGEMIPFYLDRLDEALPQAVTNLDRTISDYVRENVYITPSGMFNQAQLQYCVETLGVDRILYSVDYPFIGNDGAVSFLDEANLPDEAKHQIAHQNTEKLLGL
# B9: 47 (protein, listed as Serratia odorifera)
# chain: MAKIICLEEHTLDKALVMASMPAALAQAPFLSDWGKTITDGNLPDRSRPQIEKNDLINVKGADIGRGRLDDMDEAGITMQVLSVGGFPHLISAAEGVDLNRAANDRLANAVNAHPDRFAAFATLPWAQPDAAEKELERAVKELGFKGALLNGRPSIHFLDHPDYDGLLARFNALGVPLYLHPGLPVRSVQQAYYSGFSDEVTARLSMFGWGWHHEAGIHLLRLILSGAFDKYPNLQVISGHWGEMLPFWLQRLDDSLPQAATGLRRTITQTFREQVYVTPSGMLTLPHFQFIYALLGAERILFSVDYPYQTLDGVKAFIQSLPVPEEAKEAIAFRNAERLFGLTS
# B10: 57 (protein)
# chain: MAKLICVEEHVLDPAVGAATQSLVRAEAPYLPDWGSRVLDGRHVADRSRPHVIAPSESARKALEMGEPRLADMDAASIDMQVLSYGGFPQLLPAAQAIDLNRAANDKLALAAQAHPARFAGFATLPWQAPEAAARELERAVKQLGLKGALINGRPGDTFLDDARYAPILAAFDELKVPLYVHPGLPLPAVQAPYYGGFERELSARLAMFAWGWHNEAGIQVVRMLLAGVFDRHPRLQLISGHWGEMVPFFLQRLEDSIPQEASGLQRPIVQTYREHVYISPSGMFTLPHFQFIHALMGAQRILYSIDYPYQSLDGARAFIERLPISDTDKALIAHRNAERLLHL
# modifications: Collimonas fungivorans
# B11: 50 (protein, listed as Streptomyces sp.)
# chain: MARIVTLEEHWTDPAVTAAGMPNLLDHVPGYAAAFDPDTGMPYPRHPELLEDLGAARIADMDRHGITTQVLSLVNTFLPADVAPRLTAAANDAMAAAVEAFPGRFAAFATLPTAVPGAAADELRRCVGELGFVGTMIMGRTDGEFLDQPRFDPILRAASDLSVPVYLHPAPPPVAVSEASYAGGLSPAVSAAFRLAAWGWHQETAVHLLHLVLAGVLDRYPGLQFVLGHWGEFIPFYLDRLDESMPRRMTGLDRTFREYFRDNVFITPSGMFSQAQLRYCADTVGTDRIIHSVDFPMLGNEGAVSFLTDSHLSREDQEKIAHGNADALLGLG
# B12: 58 (protein)
# chain: MARVIALEEHYATTEFLRGPGTWLASRPGIVEPAGDLGDGRIAAMDQAGVDLAVLSLAAPGVEQLDPDDAVRLARDCNDQLAAAVRRYPDRLAGFATVPTSAPDRAADELERAVRGLGFPGAVINGHSRGRYLDDPFFEPVLARAAELQAPIYLHPTIPPAGVIESSYAGFAEPVTFALATVGWGWHINTATHALRMILGGVFDRHPSLQMIIGHMGEATSFMLPRFDATLKPELTGLNHPVSSYLRENFHYTFANFNDHATYANLVAQVGIERVAFSADYPFGSMVDARAFLDGLPLSDDERAAISHRNAEKLLGL
# modifications: Mycobacterium colombiense
# B13: 60 (protein, listed as Catenulispora acidiphila)
# chain: MARGFVRTAVVPGFWDAGWRGAGQPGGMRVDVHAHLFPAAYLDLLDDFRQDGGVGTREVRALGGGDGERELRLRLAAMDAVGVDVQLLSTCPQGPYTGDPTAAVEAARCANVALAQTVAQYPERLRALAALPLPHILASVDELNRAMEQDGMLGAAVGTSILGRPLSHPDFEPLFAALNRRKGVLFVHPIGESAGSPLMQASKLDRVIGYAAEVSTAILQLFQAGLTVKYPDIRIIAPHMGGYLPFLIQRLDRHRDWYLPKDAPSAGQLMRGIAYDTANPLPAALRLTAEVVGPERLLLGTDYPFEQGPSLRDHIEYILAAGLPEAQAKMIVDVNAADFLDMRSGAEQPPV
# B14: 56 (protein)
# chain: MAKIICLEEHYLDSELGRACMPVALEQAPFLGDWGKTVADGHNPDRSRPQIEKNALINAKGADLGSRRLRDMDEAGITLQILSVGGFPQLAPEDEAVTLNTAANDRLAEAVRNHPDRFAAFATLPWAQPKDAENELVRAVEKLGFKGALLNGRPSSCFLDHPDYDSLLSRFNKLNVPLYLHPGLPLKSVQQAYFTGFSAEVNARLSMFGWGWHHEAGIHLLRLMLSGAFDKYPNMQVISGHWGEMLPFWLQRLDDSLPLAATGLSRTLTRTFQEHVYVTPSGMLTLPHFKFIYELMGAERILFSVDYPYQTLDGVKTFIDSLPVNKAEKEAIAFRNAERLLGITA
# modifications: Enterobacter aerogenes
# B15: 53 (protein, listed as Granulicella tundricola)
# chain: MARTITLEEHFVTDSFLRATGAYDKPAPPWLAQLQPKLLDLGDGRIAAMDEAGIDLQVLSLAALGFDALDAATATPLVHDINDELAAAVRANPTRLAAFASLALKDPQSAARELERAIQKLGFRGVLLDGTTDGLFLDDPRFTPVFEAAVALNVPIYLHPAPPPESVFDTYFTGLPEGVGQMLSIAGWGWHAETALHTLRLITNGVFDRYPTLQLIIGHMGEMLPMALARTSKALSHAARLRQPVAAYFQSNIHLTTSGYFTQPPLRCALDVVGIDRLMFSIDYPFSANTLGRDYLTELEQTLTPEDLAKLIHRNAESLLNLS
# B16: 59 (protein)
# chain: MAPSVIDAHAHFLPGSLVTALRSRSDAPDIRTDSNGGESFGIYRTRMPYGRTYDALDVRLARMDELGVDRQILSLPGLFGIDSRPVSQALPLVRAFNDGVADLVRKHPDRFSGIAALPLADLDAAQEEYRRARGDLGLSGLILPGDTFVSVAAAERVRPLFELAATIGGLIFVHPGPLPDETGSAVDAPAPHTDSVVHRRVTVDIQNRMTEVMVTLALTDFLAPYPSVPVQVANLGGSLPFVIERMDHVYALRNPEAPPPSLSLRSLYVDAASLGPRAIALAAEVYGADRVLFGSDYPIFDDGRCLDAVRQTRLSPDARALIAGGNAARMLTQT
# modifications: alpha proteobacterium
# Assay: Saturation mutagenesis of SEQ ID NO:109: dicamba decarboxylation activity of point mutants (CO2 released), fold of backbone (Tables 7, 8, Megatable 1)
# Conditions: decarboxylation activity (CO2 released) of point mutant vs unmutated backbone protein; backbone SEQ ID NO: 109
row,Molecule,Fold Activity
1,B1,1.5 fold
2,B2,1.7 fold
3,B3,2 fold
4,B4,1.9 fold
5,B5,1.4 fold
6,B6,1.7 fold
7,B7,1.5 fold
8,B8,1.1 fold
9,B9,1.2 fold
10,B10,2 fold
11,B11,1.7 fold
12,B12,1.5 fold
13,B13,1.6 fold
14,B14,1.3 fold
15,B15,1.6 fold
16,B16,0.9 fold
